Values of other authors, collected in patent publication US20100120660A1, “HIGHLY CONCENTRATED INSULIN SOLUTIONS AND COMPOSITIONS” (priority 2007, published 2010).

In the case of porcine insulin, the “stability of insulin in highly concentrated solution” value (acidic pH) is listed as “not stable due to deamidation and polymerisation” and the “concentration of stable insulin solutions” value (comprising zinc, neutral pH) is listed as “up to 6 mM”.
